Test results: paper PMC11146434, “Mitigation of TDP-43 toxic phenotype by an RGNEF fragment in amyotrophic lateral sclerosis models” (Brain, 2023)

B1: His-MBP-RGNEF^1–275 (domain or fragment, human, UniProt Q8N1W1 1-275, looked up)
chain: MELSCSEAPLYGQMMIYAKFDKNVYLPEDAEFYFTYDGSHQRHVMIAERIEDNVLQSSVPGHGLQETVTVSVCLCSEGYSPVTMGSGSVTYVDNMACRLARLLVTQANRLTACSHQTLLTPFALTAGALPALDEELVLALTHLELPLEWTVLGSSSLEVSSHRESLLHLAMRWGLAKLSQFFLCLPGGVQALALPNEEGATPLDLALREGHSKLVEDVTNFQGRWSPSFSRVQLSEEASLHYIHSSETLTLTLNHTAEHLLEADIKLFRKYFWDR
notes: Detailed purification protocol is in the Supplementary Methods; also called His-NF242; NF242 (in the SPR experiments); source: E. coli, purified (Ni-IMAC); not shown: MBP, N-terminal, kept

Key:
His-MBP-RGNEF^1–275 = molecular target: B1; test: SPR; His-MBP-RGNEF^1–275 amine-coupled on a carboxymethyl dextran chip; TDP-43 fragments as analytes; 1× PBS, 0.1% Tween-20; 22°C
His-TDP-43 1-269 [1] = molecular target: T1, His-TDP-43 1-269 (human, UniProt Q13148 1-269); test: SPR; 100 nM TDP-43 1-269, no NF242; 10 mM Tris pH 8.0, 150 mM NaCl, 2 mM MgCl2, 0.05% Tween-20, 1 uM BSA; 30 min pre-incubation at room temperature; SPR at 22 C (stated for the protein-protein SPR); 80 RIU RNA immobilized; settings: protein: recombinant; tags: N-terminal 6xHis (pQE30); label: 3' biotin
Target sequence in this assay (Q13148 1-269): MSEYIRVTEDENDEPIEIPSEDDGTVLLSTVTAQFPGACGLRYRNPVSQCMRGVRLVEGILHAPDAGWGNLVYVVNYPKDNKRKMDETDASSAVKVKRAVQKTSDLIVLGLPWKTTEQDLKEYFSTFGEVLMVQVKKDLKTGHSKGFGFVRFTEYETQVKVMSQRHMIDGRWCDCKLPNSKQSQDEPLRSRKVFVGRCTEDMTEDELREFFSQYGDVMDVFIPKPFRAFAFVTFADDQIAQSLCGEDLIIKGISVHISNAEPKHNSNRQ

His-TDP-43 1-269 [2] = molecular target: T1, His-TDP-43 1-269; test: SPR; competition: 3′-biotinylated RNA oligo on a neutravidin chip; 100 nM His-TDP-43^1–269 pre-incubated 30 min at room temperature with 1 or 10 μM His-MBP-RGNEF^1–275, then injected; 10 mM Tris pH 8.0, 150 mM NaCl, 2 mM MgCl2, 0.05% Tween-20, 1 μM BSA
His-GST-TDP-43^wt = molecular target: T2, His-GST-TDP-43^wt (human, UniProt Q13148 1-414); test: SPR; His-MBP-RGNEF^1–275 amine-coupled on a carboxymethyl dextran chip (2000 to 8000 µRIU); His-GST-TDP-43^wt as analyte; 20 mM HEPES pH 7.5, 50 mM KCl, 0.5 mM MgCl2, 50 mM NaCl, 0.05% Tween-20; 22°C; settings: both partners purified
T2 construct: also called full-length wild-type TDP-43 with an N-terminal GST fusion; source: E. coli, purified (Ni-IMAC); not shown: GST, N-terminal, kept
T2 sequence (Q13148 whole entry, the tested form may be a part): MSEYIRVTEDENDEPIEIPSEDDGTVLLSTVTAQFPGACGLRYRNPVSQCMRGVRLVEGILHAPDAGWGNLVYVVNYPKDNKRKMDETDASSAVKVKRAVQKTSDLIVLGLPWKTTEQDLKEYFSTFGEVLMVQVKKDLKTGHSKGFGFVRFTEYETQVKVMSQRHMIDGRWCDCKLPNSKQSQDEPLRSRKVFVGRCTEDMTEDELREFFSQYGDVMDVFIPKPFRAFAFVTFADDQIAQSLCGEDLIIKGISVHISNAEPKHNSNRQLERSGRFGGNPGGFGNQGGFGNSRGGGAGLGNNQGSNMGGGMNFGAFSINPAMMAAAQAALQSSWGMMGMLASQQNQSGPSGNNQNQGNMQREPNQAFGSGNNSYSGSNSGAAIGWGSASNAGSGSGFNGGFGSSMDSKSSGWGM

## His-TDP-43^1–269 (from UniProt Q13148 1-269) (domain or fragment)
His-MBP-RGNEF^1–275
  Kd: 4110 nM

## GUGUGUGAAUGAAUAAA (ssRNA) [3'-biotinylated RNA oligo]
His-TDP-43 1-269 [1]
  binding result: binds

## B1
His-TDP-43 1-269 [2]
  percent reduction of the signal of TDP-43 on the RNA chip at 1 μM NF242: 10%
  percent reduction of the signal of TDP-43 on the RNA chip at 10 μM NF242: 50%
His-GST-TDP-43^wt
  Kd: 1780 nM

B2: His-RRM-1 (domain or fragment, human, UniProt Q13148 101-191, looked up)
chain: QKTSDLIVLGLPWKTTEQDLKEYFSTFGEVLMVQVKKDLKTGHSKGFGFVRFTEYETQVKVMSQRHMIDGRWCDCKLPNSKQSQDEPLRSR
notes: source: E. coli, purified (Ni-IMAC)
His-MBP-RGNEF^1–275; both partners purified
  binding result: binds
